The series can be described thus: total protein half-life in vivo (active degradation + dilution); higher = more stable protein.
The mark [1] stands for this setting: E. coli NCM3722 delta-clpP delta-lon delta-hslV, growth: N-lim chemostat, doubling time 6 h.
The mark [2] stands for this setting: E. coli NCM3722 delta-clpP, growth: N-lim chemostat, doubling time 6 h.
Where [3] appears, read: E. coli NCM3722 delta-hslV, growth: N-lim chemostat, doubling time 6 h.
The mark [4] stands for this setting: E. coli NCM3722 delta-lon, growth: N-lim chemostat, doubling time 6 h.
[5] abbreviates: E. coli NCM3722 delta-smpB, growth: N-lim chemostat, doubling time 6 h.
The mark [6] stands for this setting: wild type E. coli NCM3722, growth: C-lim chemostat, doubling time 3 h.
[7] abbreviates: wild type E. coli NCM3722, growth: C-lim chemostat, doubling time 6 h.
The mark [8] stands for this setting: wild type E. coli NCM3722, growth: C-lim chemostat, doubling time 12 h.
The mark [9] stands for this setting: wild type E. coli NCM3722, growth: N-lim chemostat, doubling time 6 h.
The mark [10] stands for this setting: wild type E. coli NCM3722, growth: N-lim chemostat, doubling time 12 h.
Setting [11] is: wild type E. coli NCM3722, growth: P-lim chemostat, doubling time 6 h.
Setting [12] is: wild type E. coli NCM3722, growth: P-lim chemostat, doubling time 12 h.

± gives the standard deviation of the averaged measurements.

For “MKALSKLKAEEGIWMTDVPVPELGHNDLLIKIRKTAICGTDVHIYNWDEWSQKTIPVPMVVGHEYVGEVVGIGQEVKGFKIGDRVSGEGHITCGHCRNCRGGRTHLCRNTIGVGVNRPGCFAEYLVIPAFNAFKIPDNISDDLAAIFDPFGNAVHTALSFDLVGEDVLVSGAGPIGIMAAAVAKHVGARNVVITDVNEYRLELARKMGITRAVNVAKENLNDVMAELGMTEGFDVGLEMSGAPPAFRTMLDTMNHGGRIAMLGIPPSDMSIDWTKVIFKGLFIKGIYGREMFETWYKMAALIQSGLDLSPIITHRFSIDDFQKGFDAMRSGQSGKVILSWD”, the “total protein half-life in vivo” value by setting is: under setting [1], 4.87 ± 0.096 h; under setting [2], 5 ± 0.21 h; under setting [3], 5.96 ± 1.6 h; under setting [4], 5.24 ± 0.061 h; under setting [5], 4.44 ± 0.18 h; under setting [6], 2.439 ± 0.022 h. Further, the “total protein half-life in vivo” value came to 4.37 ± 0.59 h under setting [7]; 9.68 ± 1.8 h under setting [8]; 4.85 ± 0.16 h under setting [9]; 8.68 ± 0.96 h under setting [10]; 6.2 ± 0.19 h under setting [11]; 12.6 ± 0.36 h under setting [12].
For “MRKQWLGICIAAGMLAACTSDDGQQQTVSVPQPAVCNGPIVEISGADPRFEPLNATANQDYQRDGKSYKIVQDPSRFSQAGLAAIYDAEPGSNLTASGEAFDPTQLTAAHPTLPIPSYARITNLANGRMIVVRINDRGPYGNDRVISLSRAAADRLNTSNNTKVRIDPIIVAQDGSLSGPGMACTTVAKQTYALPAPPDLSGGAGTSSVSGPQGDILPVSNSTLKSEDPTGAPVTSSGFLGAPTTLAPGVLEGSEPTPAPQPVVTAPSTTPATSPAMVTPQAVSQSASGNFMVQVGAVSDQARAQQYQQQLGQKFGVPGRVTQNGAVWRIQLGPFASKAEASTLQQRLQTEAQLQSFITTAQ”, the “total protein half-life in vivo” value reads like this: under setting [1], 5.56 ± 0.12 h; under setting [2], 5.78 ± 0.37 h; under setting [3], 6.5 ± 0.56 h; under setting [4], 6.29 ± 0.38 h; under setting [5], 5.65 ± 0.12 h; under setting [6], 3.1 ± 0.15 h. Moreover, the “total protein half-life in vivo” value runs as follows: under setting [7], 5.89 ± 0.42 h; under setting [9], 6.17 ± 0.07 h; under setting [10], 13.4 ± 2.2 h; under setting [12], 12.38 ± 0.038 h.
“MFSALRHRTAALALGVCFILPVHASSPKPGDFANTQARHIATFFPGRMTGTPAEMLSADYIRQQFQQMGYRSDIRTFNSRYIYTARDNRKSWHNVTGSTVIAAHEGKAPQQIIIMAHLDTYAPLSDADADANLGGLTLQGMDDNAAGLGVMLELAERLKNTPTEYGIRFVATSGEEEGKLGAENLLKRMSDTEKKNTLLVINLDNLIVGDKLYFNSGVKTPEAVRKLTRDRALAIARSHGIAATTNPGLNKNYPKGTGCCNDAEIFDKAGIAVLSVEATNWNLGNKDGYQQRAKTPAFPAGNSWHDVRLDNHQHIDKALPGRIERRCRDVMRIMLPLVKELAKAS”: the “total protein half-life in vivo” value was 5.3 ± 0.29 h under setting [2]; 5.24 ± 0.83 h under setting [3]; 5.44 ± 0.031 h under setting [4]; 4.38 ± 0.053 h under setting [5]; 2.58 ± 0.67 h under setting [6]; 2.46 h under setting [7]. Further, the “total protein half-life in vivo” value by setting is: under setting [9], 5.37 ± 1 h; under setting [10], 9.09 ± 1.6 h; under setting [11], 4 ± 0.27 h; under setting [12], 7.1 ± 0.99 h.
Consider “MSQLPGLSRETRESIAMYHLRVPQTEEELERYYQFRWEMLRKPLHQPKGSERDAWDAMAHHQMVVDEQGNLVAVGRLYINADNEASIRFMAVHPDVQDKGLGTLMAMTLESVARQEGVKRVTCSAREDAVEFFAKLGFVNQGEITTPTTTPIRHFLMIKPVATLDDILHRGDWCAQLQQAWYEHIPLSEKMGVRIQQYTGQKFITTMPETGNQNPHHTLFAGSLFSLATLTGWGLIWLMLRERHLGGTIILADAHIRYSKPISGKPHAVADLGALSGDLDRLARGRKARVQMQVEIFGDETPGAVFEGTYIVLPAKPFGPYEEGGNEEE [P0ADQ2]”, for which the “total protein half-life in vivo” value under setting [1] is 5.56 ± 0.43 h; the “total protein half-life in vivo” value under setting [2] amounted to 4.46 ± 0.32 h; the “total protein half-life in vivo” value under setting [3] was determined as 5.1 ± 0.92 h; the “total protein half-life in vivo” value under setting [4] amounted to 4.93 ± 0.26 h; the “total protein half-life in vivo” value under setting [5] stood at 4.38 ± 0.27 h; the “total protein half-life in vivo” value under setting [6] stood at 2.8559 ± 0.0026 h. The “total protein half-life in vivo” value under setting [7] amounted to 5.57 ± 0.27 h; the “total protein half-life in vivo” value under setting [8] came out at 9.83 ± 0.3 h; the “total protein half-life in vivo” value under setting [9] came to 4.71 ± 0.12 h; the “total protein half-life in vivo” value under setting [10] turned out to be 8.84 ± 1.4 h; the “total protein half-life in vivo” value under setting [11] was determined as 5.88 ± 0.23 h; the “total protein half-life in vivo” value under setting [12] was 11.8 ± 0.52 h.
With “MTHDNKLQVEAIKRGTVIDHIPAQIGFKLLSLFKLTETDQRITIGLNLPSGEMGRKDLIKIENTFLSEDQVDQLALYAPQATVNRIDNYEVVGKSRPSLPERIDNVLVCPNSNCISHAEPVSSSFAVRKRANDIALKCKYCEKEFSHNVVLAN [P0A7F3]”, the “total protein half-life in vivo” value reads like this: under setting [1], 5.57 ± 0.82 h; under setting [2], 4.6 ± 0.65 h; under setting [3], 5.27 ± 1.8 h; under setting [4], 4.92 ± 0.13 h; under setting [5], 5.09 ± 0.11 h; under setting [6], 3.33 ± 0.51 h. The “total protein half-life in vivo” value is, setting by setting: under setting [7], 5.19 ± 0.14 h; under setting [8], 9.106 ± 0.024 h; under setting [9], 4.14 ± 0.12 h; under setting [10], 7.28 ± 0.48 h; under setting [11], 5.64 ± 0.66 h; under setting [12], 12.2 ± 1 h.
As to “MMILVTGGARSGKSRHAEALIGDSSQVLYIATSQILDDEMAARIEHHRQGRPEHWRTVERWQHLDELIHADINPNEVVLLECVTTMVTNLLFDYGGDKDPDEWDYQAMEQAINAEIQSLIAACQRCPAKVVLVTNEVGMGIVPESRLARHFRDIAGRVNQQLAAAANEVWLVVSGIGVKIK [P0AE76]”, the “total protein half-life in vivo” value came out at 4.52 h under setting [1]; 3.9 h under setting [2]; 4.32 h under setting [3]; 4.68 h under setting [5]; 5.17 h under setting [7]; 10.5 h under setting [8]. Further, the “total protein half-life in vivo” value under setting [9] is 3.85 h, the “total protein half-life in vivo” value under setting [10] was 8.3 h, the “total protein half-life in vivo” value under setting [11] is 5.94 h and the “total protein half-life in vivo” value under setting [12] came out at 9.83 ± 1.8 h.
On to “MKTIHDIRRSNARKLRDGVGGNSSFATMIDREPTQTSRFMGDGATKNIGDSMARHIEKCFDLPVGWLDQEHQTTNITKKPDVSITNKQITLVPVISWVQAGAWKEVGYSEVDLSTAETYPCPVPCGEMTYILRVIGDSMIDEYRPGDMIFVDPEVPACHGDDVIALMHDTGETTFKRLIEDGTQRYLKALNPNWPEPYIKINGNCSIIGTVIFSGKPRRYKIKA”, for which the “total protein half-life in vivo” value runs as follows: under setting [1], 5.24 ± 0.42 h; under setting [2], 5.02 ± 0.3 h; under setting [3], 4.84 ± 0.77 h; under setting [4], 4.886 ± 0.017 h; under setting [5], 5.12 ± 0.24 h; under setting [7], 6.8 ± 0.23 h. Also, the “total protein half-life in vivo” value came out at 9.86 ± 0.61 h under setting [8]; 5.26 ± 0.76 h under setting [9]; 7.94 ± 0.96 h under setting [10]; 4.81 ± 0.62 h under setting [11]; 12.7 ± 2 h under setting [12].

Source of the values: the supplement of paper PMC11246515.
